Reference: patent publication US20240002531A1 (ONO PHARMACEUTICAL, published 2024)

Assays:
Test in all cases: SPR Biacore, mAb on chip, peptide analyte, 1:1 fit;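 also: where kon or koff could not be resolved by kinetic fitting, Kd comes instead from steady-state equilibrium analysis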
[1] = target: T1, HER2 peptide p603-622 (amino acids 603 to 622 of human HER2) (human)
T1 construct: Synthetic peptide; also called wild-type HER2 peptide
T1 peptide: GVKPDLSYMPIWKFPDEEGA

[2] = target: T2, G603A peptide (HER2 603-622 with G603A) (human)
T2 peptide: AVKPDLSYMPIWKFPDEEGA

[3] = target: T3, V604A peptide (HER2 603-622 with V604A) (human)
T3 peptide: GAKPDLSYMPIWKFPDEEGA

[4] = target: T4, K605A peptide (HER2 603-622 with K605A) (human)
T4 peptide: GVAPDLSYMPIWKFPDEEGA

[5] = target: T5, P606A peptide (HER2 603-622 with P606A) (human)
T5 peptide: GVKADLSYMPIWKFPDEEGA

[6] = target: T6, L608A peptide (HER2 603-622 with L608A) (human)
T6 peptide: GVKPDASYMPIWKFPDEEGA

[7] = target: T7, S609A peptide (HER2 603-622 with S609A) (human)
T7 peptide: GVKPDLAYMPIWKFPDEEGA

[8] = target: T8, Y610A peptide (HER2 603-622 with Y610A) (human)
T8 peptide: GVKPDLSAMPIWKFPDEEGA

[9] = target: T9, P612A peptide (HER2 603-622 with P612A) (human)
T9 peptide: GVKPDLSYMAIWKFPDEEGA

[10] = target: T10, I613A peptide (HER2 603-622 with I613A) (human)
T10 construct: also called 1613A
T10 peptide: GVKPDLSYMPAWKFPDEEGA

[11] = target: T11, P617A peptide (HER2 603-622 with P617A) (human)
T11 peptide: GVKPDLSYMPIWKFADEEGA

[12] = target: T12, D618A peptide (HER2 603-622 with D618A) (human)
T12 peptide: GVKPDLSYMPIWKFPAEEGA

[13] = target: T13, E619A peptide (HER2 603-622 with E619A) (human)
T13 peptide: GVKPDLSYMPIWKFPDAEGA

[14] = target: T14, E620A peptide (HER2 603-622 with E620A) (human)
T14 peptide: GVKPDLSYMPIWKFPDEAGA

[15] = target: T15, G621A peptide (HER2 603-622 with G621A) (human)
T15 peptide: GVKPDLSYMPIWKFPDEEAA

B1: H2Mab-250 antibody (antibody, V domains shown)
VH: EVQLVESGGGLVQPGGSLKLSCAASGFTFSNYGMSWVRQTPDRRLELVATINNNGGGTYYPDSVKGRFTISRDNAKNTLYLQMSSLKSEDTAMYYCTSPGLLWDAWGAGTTVTVSS
VL: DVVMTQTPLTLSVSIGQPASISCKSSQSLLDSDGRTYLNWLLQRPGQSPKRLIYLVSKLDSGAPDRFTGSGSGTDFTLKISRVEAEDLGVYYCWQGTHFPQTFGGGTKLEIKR
notes: Mouse monoclonal from a hybridoma (immunogen HER2ec made in LN229 cells); also called antibody of the present invention
Q: With B1 as the binder, how does the Kd [1] read?
A: 5.8 nM

Q: And the koff [1]?
A: 0.00037 s⁻¹

Q: And the kon [1]?
A: 63900 M⁻¹ s⁻¹

Q: What about the Kd [2] of the same binder?
A: 5.87 nM

Q: What about the koff [2] of the same binder?
A: 0.00043 s⁻¹

Q: And the kon [2]?
A: 73300 M⁻¹ s⁻¹

Q: And the Kd [3]?
A: 6.54 nM

Q: And the koff [3]?
A: 0.000399 s⁻¹

Q: What about the kon [3] of the same binder?
A: 61000 M⁻¹ s⁻¹

Q: And the Kd [4]?
A: 6.45 nM

Q: And the koff [4]?
A: 0.000346 s⁻¹

Q: And the kon [4]?
A: 53600 M⁻¹ s⁻¹

Q: What about the Kd [5] of the same binder?
A: 5.34 nM

Q: And the koff [5]?
A: 0.000393 s⁻¹

Q: And the kon [5]?
A: 73600 M⁻¹ s⁻¹

Q: And the Kd [6]?
A: 8.79 nM

Q: And the koff [6]?
A: 0.000431 s⁻¹

Q: And the kon [6]?
A: 49100 M⁻¹ s⁻¹

Q: And the Kd [7]?
A: 6.51 nM

Q: And the koff [7]?
A: 0.000394 s⁻¹

Q: And the kon [7]?
A: 60600 M⁻¹ s⁻¹

Q: And the Kd [8]?
A: 7.9 nM

Q: What about the koff [8] of the same binder?
A: 0.000451 s⁻¹

Q: And the kon [8]?
A: 57100 M⁻¹ s⁻¹

Q: What about the Kd [9] of the same binder?
A: 9.54 nM

Q: And the koff [9]?
A: 0.000609 s⁻¹

Q: What about the kon [9] of the same binder?
A: 63800 M⁻¹ s⁻¹

Q: And the Kd [10]?
A: 93.9 nM

Q: What about the koff [10] of the same binder?
A: 0.00828 s⁻¹

Q: What about the kon [10] of the same binder?
A: 88400 M⁻¹ s⁻¹

Q: What about the Kd [11] of the same binder?
A: 207 nM

Q: And the koff [11]?
A: 0.00914 s⁻¹

Q: What about the kon [11] of the same binder?
A: 44100 M⁻¹ s⁻¹

Q: And the Kd [12]?
A: 5.8 nM

Q: And the koff [12]?
A: 0.000432 s⁻¹

Q: And the kon [12]?
A: 74500 M⁻¹ s⁻¹

Q: And the Kd [13]?
A: 6.29 nM

Q: And the koff [13]?
A: 0.000465 s⁻¹

Q: And the kon [13]?
A: 73900 M⁻¹ s⁻¹

Q: And the Kd [14]?
A: 7.98 nM

Q: What about the koff [14] of the same binder?
A: 0.000455 s⁻¹

Q: What about the kon [14] of the same binder?
A: 57100 M⁻¹ s⁻¹

Q: And the Kd [15]?
A: 6.91 nM

Q: And the koff [15]?
A: 0.000399 s⁻¹

Q: And the kon [15]?
A: 57800 M⁻¹ s⁻¹
